Experiments:
L19-hIL2 (human) = assay: SEC
L19-mTNF (murine) = assay: SEC

stoichiometry N (L19-hIL2 (human))	stoichiometry N (L19-mTNF (murine))	Substance
2		L19-hIL2
	3	L19-mTNF

Source: paper doi:10.1101/712158
